In PMC13276377, “Structural Mechanism of Receptor-Triggered MyD88 Oligomeric Assembly in Innate Immune Signaling” (Nature Communications, 2026):

Molecular target: the molecule itself
Assay: high-speed AFM; 10–200 μM TIR_(MyD88) adsorbed on mica for 10 min; 20 mM HEPES pH 7.0, 50 mM NaCl, 10 mM DTT; room temperature

B1: TIR domain of MyD88 (TIR_(MyD88); residues 153–296) (domain or fragment, human, UniProt Q99836-1 153-296, looked up)
chain: PLGHMPERFDAFICYCPSDIQFVQEMIRQLEQTNYRLKLCVSDRDVLPGTCVWSIASELIEKRCRRMVVVVSDDYLQSKECDFQTKFALSLSPGAHQKRLIPIKYKAMKKEFPSILRFITVCDYTNPCTKSWFWTRLAKALSLP
notes: human MyD88, TIR domain, amino acids 153–296; Self-assembles into antiparallel double-stranded filaments, double-layered rings and cylindrical fibers; also called WT TIR_(MyD88); Toll/interleukin-1 receptor domain of MyD88
  stoichiometry N: 58
